From paper doi:10.1101/2025.04.08.647717

Columns and labels:
[1] = target: EaeE37A (EaeSPARDA with E37A in the DREN domain of DREN-APAZ) (Enhydrobacter aerosaccus); assay: SEC-MALS
[2] = target: WT EaeSPARDA (binary DREN-APAZ:Ago monomer) (Enhydrobacter aerosaccus); assay: SEC-MALS
[3] = target: WT XauSPARDA (binary DREN-APAZ:Ago monomer) (Xanthobacter autotrophicus strain Py2); assay: SEC-MALS
[4] = target: XauDREN-APAZ protein (Xanthobacter autotrophicus strain Py2); assay: cryo-EM structure
[5] = target: XauE37A (XauSPARDA with E37A in the DREN domain of DREN-APAZ) (Xanthobacter autotrophicus strain Py2); assay: SEC-MALS
[6] = target: XauHSH (XauSPARDA whose XauAgo carries a 29 aa HSH-tag at the C-terminus) (Xanthobacter autotrophicus strain Py2); assay: SEC-MALS

EaeE37A (EaeSPARDA with E37A in the DREN domain of DREN-APAZ) (complex)
stoichiometry N [1]: 2

WT EaeSPARDA (binary DREN-APAZ:Ago monomer) (complex)
stoichiometry N [2]: 2

WT XauSPARDA (binary DREN-APAZ:Ago monomer) (complex)
stoichiometry N [3]: 2

XauDREN-APAZ protein (natural protein)
stoichiometry N [4]: 4

XauE37A (XauSPARDA with E37A in the DREN domain of DREN-APAZ) (complex)
stoichiometry N [5]: 2

XauHSH (XauSPARDA whose XauAgo carries a 29 aa HSH-tag at the C-terminus) (complex)
stoichiometry N [6]: 2
